Results from patent publication US20260115269A1, “MYC[…] CELL EPITOPES, MEGAPOOLS AND USES THEREOF” (La Jolla Institute for Immunology, priority 2022, published 2026).

B1: Rv0288: Mtb antigen, TB vaccine candidate antigen, tested as peptides (protein, UniProt P9WNK3 1-96, looked up)
ESAT-6-like protein EsxH: MSQIMYNYPAMLGHAGDMAGYAGTLQSLGAEIAVEQAALQSAWQGDTGITYQAWQAQWNQAMEDLVRAYHAMSSTHEANTMAMMARDTAEAAKWGG
modifications: tested as peptides
B2: Rv3615c: Mtb antigen included in the ESAT-6 free IGRA test (protein, UniProt P9WJD7 2-103, looked up)
ESX-1 secretion-associated …: TENLTVQPERLGVLASHHDNAAVDASSGVEAAAGLGESVAITHGPYCSQFNDTLNVYLTAHNALGSSLHTAGVDLAKSLRIAAKIYSEADEAWRKAIDGLFT
B3: Rv1196: Mtb vaccine candidate antigen, tested as peptides (protein, UniProt L7N675 1-391, looked up)
PPE family protein PPE18: MVDFGALPPEINSARMYAGPGSASLVAAAQMWDSVASDLFSAASAFQSVVWGLTVGSWIGSSAGLMVAAASPYVAWMSVTAGQAELTAAQVRVAAAAYETAYGLTVPPPVIAENRAELMILIATNLLGQNTPAIAVNEAEYGEMWAQDAAAMFGYAAATATATATLLPFEEAPEMTSAGGLLEQAAAVEEASDTAAANQLMNNVPQALQQLAQPTQGTTPSSKLGGLWKTVSPHRSPISNMVSMANNHMSMTNSGVSMTNTLSSMLKGFAPAAAAQAVQTAAQNGVRAMSSLGSSLGSSGLGGGVAANLGRAASVGSLSVPQAWAAANQAVTPAARALPLTSLTSAAERGPGQMLGGLPVGQMGARAGGGLSGVLRVPPRPYVMPHSPAAG
modifications: tested as peptides

Key:
[1] = test system: PBMCs from participants mid-treatment for ATB; assay: Proteome-wide peptide library screen: ex vivo IFNγ and IL-17 Fluorospot, positive pools deconvoluted to individual epitopes; type: cell-based, human; details: n=21
[2] = test system: PBMCs from ATB participants; assay: Fluorospot screen of 517 overlapping 15-mer peptides spanning TB vaccine candidate and IGRA antigens; type: cell-based, human; details: overlapping 15-mers; IGRA+ data from previous study

| Molecule | antigen recognition in the proteome-wide screen [1] | antigen recognition in ATB (n=21) compared with healthy IGRA+ participants (n=63) [2] |
| --- | --- | --- |
| Rv3874: Mtb IGRA antigen, tested as peptides | most frequently recognized | most frequently recognized |
| B1 | most frequently recognized | most frequently recognized |
| B2 | most frequently recognized | – |
| B3 | – | most frequently recognized |
